In the RNAGym collection of RNA variant scans (doi:10.1101/gr.219683.116):

B1: mRNA-splicing (parent)
chain: AGUUGCUGCUGGGAGCUCCAGCACAGUGAAAUGGACAGAAGGGCAGAGCAA

Variants of: B1
Test: exon inclusion enrichment index; higher = more inclusion; WT1 exon 5 minigene, HEK293

Which “exon inclusion enrichment index” value does the source give for C6A U7A C9A U10A A25U G26C here?
The value was 0.956.

With C6A U7A C9A U10A A25U G26U as the variant, how does the “exon inclusion enrichment index” value read?
The value was 0.734.

For C6A U7A C9A U10A A25U G26A, which “exon inclusion enrichment index” value is on record?
Its value is 0.899.

With C6A U7A C9A U10A A37U as the variant, how does the “exon inclusion enrichment index” value read?
Its value is 0.746.

For C6A U7A C9A U10A A37G, which “exon inclusion enrichment index” value is on record?
Its value is 1.54.

Which “exon inclusion enrichment index” value does the source give for C6A U7A C9A U10A A37C here?
The value was 1.72.

For C6A U7A C9A U10A A25G G26C, which “exon inclusion enrichment index” value is on record?
Its value is 2.3.

For C6A U7A C9A U10A A25G G26U, which “exon inclusion enrichment index” value is on record?
The value was 1.43.

Which “exon inclusion enrichment index” value does the source give for C6A U7A C9A U10A A25G G26A here?
Its value is 2.29.

With C6A U7A C9A U10A A30C A31U as the variant, how does the “exon inclusion enrichment index” value read?
The value was 0.986.

With C6A U7A C9A U10A A30C A31C as the variant, how does the “exon inclusion enrichment index” value read?
The value was 1.38.

For C6A U7A C9A U10A A30C A31G, which “exon inclusion enrichment index” value is on record?
The value was 1.45.

For C6A U7A C9A U10A A23C, which “exon inclusion enrichment index” value is on record?
The value was 0.443.

For C6A U7A C9A U10A A23U, which “exon inclusion enrichment index” value is on record?
The value was 0.394.

With C6A U7A C9A U10A A23G as the variant, how does the “exon inclusion enrichment index” value read?
Its value is 1.32.

For C6A U7A C9A U10A C16A U17G, which “exon inclusion enrichment index” value is on record?
Its value is 0.312.

With C6A U7A C9A U10A C16A U17C as the variant, how does the “exon inclusion enrichment index” value read?
Its value is 0.47.

With C6A U7A C9A U10A C16A U17A as the variant, how does the “exon inclusion enrichment index” value read?
The value was 0.501.

With C6A U7A C9A G11U as the variant, how does the “exon inclusion enrichment index” value read?
The value was 2.86.

With C6A U7A C9A G11A as the variant, how does the “exon inclusion enrichment index” value read?
The value was 0.721.

With C6A U7A C9A G11C as the variant, how does the “exon inclusion enrichment index” value read?
Its value is 3.26.

With G5U G8U C9U G43U C44A as the variant, how does the “exon inclusion enrichment index” value read?
The value was 0.0152.

Which “exon inclusion enrichment index” value does the source give for G5U G8U C9U G43U C44U here?
Its value is 0.0283.

For G5U G8U C9U G43U C44G, which “exon inclusion enrichment index” value is on record?
The value was 0.112.

For C6A U7A C9A U10A A20U, which “exon inclusion enrichment index” value is on record?
The value was 0.829.

For C6A U7A C9A U10A A20G, which “exon inclusion enrichment index” value is on record?
Its value is 1.05.

With C6A U7A C9A U10A A20C as the variant, how does the “exon inclusion enrichment index” value read?
Its value is 0.58.

Which “exon inclusion enrichment index” value does the source give for C6A U7A C9A U10A A37G G38U here?
Its value is 0.29.

For C6A U7A C9A U10A A37G G38C, which “exon inclusion enrichment index” value is on record?
The value was 0.984.

For C6A U7A C9A U10A A37G G38A, which “exon inclusion enrichment index” value is on record?
The value was 0.801.

Which “exon inclusion enrichment index” value does the source give for C6A U7A C9A U10A A23U C24G here?
Its value is 0.918.

For C6A U7A C9A U10A A23U C24U, which “exon inclusion enrichment index” value is on record?
The value was 0.0381.

For C6A U7A C9A U10A A23U C24A, which “exon inclusion enrichment index” value is on record?
Its value is 0.207.

With G5U U7G C9U as the variant, how does the “exon inclusion enrichment index” value read?
The value was 0.575.

Which “exon inclusion enrichment index” value does the source give for G5U U7G C9A here?
Its value is 2.09.

Which “exon inclusion enrichment index” value does the source give for C6A U7A C9A U10A A14G here?
The value was 0.618.

Which “exon inclusion enrichment index” value does the source give for C6A U7A C9A U10A A14C here?
The value was 0.774.

Which “exon inclusion enrichment index” value does the source give for C6A U7A C9A U10A A14U here?
Its value is 0.301.

With C6A G8A C9A U10A as the variant, how does the “exon inclusion enrichment index” value read?
Its value is 0.0495.

With C6A G8A C9A U10C as the variant, how does the “exon inclusion enrichment index” value read?
Its value is 0.666.

With G5U G8U C9U G46U A47U as the variant, how does the “exon inclusion enrichment index” value read?
Its value is 0.164.

With G5U G8U C9U G46U A47G as the variant, how does the “exon inclusion enrichment index” value read?
Its value is 0.0739.

For G5U G8U C9U G46U A47C, which “exon inclusion enrichment index” value is on record?
Its value is 0.55.

For C6A U7A C9A U10A A45G G46C, which “exon inclusion enrichment index” value is on record?
The value was 1.17.

For C6A U7A C9A U10A A45G G46A, which “exon inclusion enrichment index” value is on record?
Its value is 2.3.

Which “exon inclusion enrichment index” value does the source give for C6A U7A C9A U10A A45G G46U here?
The value was 0.543.

Which “exon inclusion enrichment index” value does the source give for C6A U7A C9A U10A A35C C36U here?
The value was 0.0347.

With C6A U7A C9A U10A A35C C36A as the variant, how does the “exon inclusion enrichment index” value read?
The value was 0.329.

With C6A U7A C9A U10A A35C C36G as the variant, how does the “exon inclusion enrichment index” value read?
The value was 0.657.

For G5U G8U C9U G46A A47G, which “exon inclusion enrichment index” value is on record?
The value was 0.0611.

For G5U G8U C9U G46A A47C, which “exon inclusion enrichment index” value is on record?
Its value is 0.466.

For G5U G8U C9U G46A A47U, which “exon inclusion enrichment index” value is on record?
Its value is 0.164.

With C6A U7A C9A U10A C22A A23U as the variant, how does the “exon inclusion enrichment index” value read?
The value was 0.354.

With C6A U7A C9A U10A C22A A23G as the variant, how does the “exon inclusion enrichment index” value read?
The value was 0.734.

With C6A U7A C9A U10A C22A A23C as the variant, how does the “exon inclusion enrichment index” value read?
The value was 1.39.

For C6A U7A C9A U10A A35G C36A, which “exon inclusion enrichment index” value is on record?
The value was 0.281.

For C6A U7A C9A U10A A35G C36G, which “exon inclusion enrichment index” value is on record?
The value was 0.0241.

With C6A U7A C9A U10A A35G C36U as the variant, how does the “exon inclusion enrichment index” value read?
The value was 0.00209.

Which “exon inclusion enrichment index” value does the source give for G5U G8U C9U G46C here?
The value was 0.148.

Which “exon inclusion enrichment index” value does the source give for G5U G8U C9U G46A here?
The value was 0.192.

For G5U G8U C9U G46U, which “exon inclusion enrichment index” value is on record?
The value was 0.0708.

With C6A U7A C9A U10A C36A as the variant, how does the “exon inclusion enrichment index” value read?
The value was 0.531.

Which “exon inclusion enrichment index” value does the source give for C6A U7A C9A U10A C36G here?
Its value is 0.433.

Which “exon inclusion enrichment index” value does the source give for C6A U7A C9A U10A C24U A25G here?
The value was 1.3.

Which “exon inclusion enrichment index” value does the source give for C6A U7A C9A U10A C24U A25C here?
Its value is 2.5.

For C6A U7A C9A U10A C24U A25U, which “exon inclusion enrichment index” value is on record?
The value was 0.761.

Which “exon inclusion enrichment index” value does the source give for G5U G8U C9U G43C here?
The value was 0.199.

With G5U G8U C9U G43U as the variant, how does the “exon inclusion enrichment index” value read?
The value was 0.16.

With C6A G8C C9A U10C as the variant, how does the “exon inclusion enrichment index” value read?
The value was 1.49.

For C6A G8C C9A U10A, which “exon inclusion enrichment index” value is on record?
Its value is 0.392.

For C6A U7A C9A U10A A45U G46C, which “exon inclusion enrichment index” value is on record?
Its value is 0.614.

Which “exon inclusion enrichment index” value does the source give for C6A U7A C9A U10A A45U G46U here?
Its value is 0.185.

Which “exon inclusion enrichment index” value does the source give for C6A U7A C9A U10A A45U G46A here?
The value was 0.485.

Which “exon inclusion enrichment index” value does the source give for G5U G8U C9U G43A C44G here?
Its value is 0.749.

With G5U G8U C9U G43A C44U as the variant, how does the “exon inclusion enrichment index” value read?
Its value is 0.177.

With C6A U7A C9A U10A C24A A25C as the variant, how does the “exon inclusion enrichment index” value read?
The value was 2.22.

Which “exon inclusion enrichment index” value does the source give for C6A U7A C9A U10A C24A A25U here?
Its value is 0.754.

With C6A U7A C9A U10A C24A A25G as the variant, how does the “exon inclusion enrichment index” value read?
The value was 0.796.

Which “exon inclusion enrichment index” value does the source give for C6A U7A C9A U10A A39G A40U here?
The value was 0.0506.

For C6A U7A C9A U10A A39G A40G, which “exon inclusion enrichment index” value is on record?
The value was 0.0665.

With C6A U7A C9A U10A A39G A40C as the variant, how does the “exon inclusion enrichment index” value read?
Its value is 1.22.

With C6A U7A C9A U10A A39C A40C as the variant, how does the “exon inclusion enrichment index” value read?
Its value is 1.65.

Which “exon inclusion enrichment index” value does the source give for C6A U7A C9A U10A A39C A40U here?
The value was 0.533.

With C6A U7A C9A U10A A39C A40G as the variant, how does the “exon inclusion enrichment index” value read?
Its value is 0.849.
